Target: fluorophore-conjugated GCK peptide (aa 59-74), wild type (human) (UniProt P35557)
Assay: fluorescence polarisation

How did the Kd turn out when “TNKS ARC1-5 with a C-terminal (His)6 tag (from UniProt O95271 1-1327) (domain or fragment)” was run?
Its Kd is 500 nM.
